Non-standard residues stand in square brackets, D forms with d. Phe(4-NO2) = N[C@@H](Cc1ccc([N+](=O)[O-])cc1)C(=O)O; Phe(4-CN) = N#Cc1ccc(C[C@H](N)C(=O)O)cc1; Phe(4-Cl) = N[C@@H](Cc1ccc(Cl)cc1)C(=O)O; Phe(4-F) = N[C@@H](Cc1ccc(F)cc1)C(=O)O; Phe(4-Me) = Cc1ccc(C[C@H](N)C(=O)O)cc1; hPhe = N[C@@H](CCc1ccccc1)C(=O)O
T1: Full length IDOL (1–445), Q8WY64
T1 chain: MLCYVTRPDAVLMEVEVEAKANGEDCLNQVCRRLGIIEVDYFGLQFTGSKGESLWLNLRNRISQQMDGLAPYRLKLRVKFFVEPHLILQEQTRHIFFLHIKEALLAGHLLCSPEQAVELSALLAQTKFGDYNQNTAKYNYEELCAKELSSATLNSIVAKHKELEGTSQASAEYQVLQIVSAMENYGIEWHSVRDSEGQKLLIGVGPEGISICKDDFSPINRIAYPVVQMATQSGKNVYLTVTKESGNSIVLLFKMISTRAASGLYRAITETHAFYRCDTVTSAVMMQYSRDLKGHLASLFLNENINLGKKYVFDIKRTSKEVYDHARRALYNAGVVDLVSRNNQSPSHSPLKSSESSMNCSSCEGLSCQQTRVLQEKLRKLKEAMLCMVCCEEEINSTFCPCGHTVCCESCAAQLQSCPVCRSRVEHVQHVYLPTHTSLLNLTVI

B1: cyclo-CFFLYT (peptide)
peptide: CFFLYT
modifications: cyclic backbone (cyclo-)
B2: cyclo-CTIFLL (peptide)
peptide: CTIFLL
modifications: cyclic backbone (cyclo-)
B3: RINGPep1 derivative with 4-cyano-phenylalanine at position 3 (peptide)
chain: cyclo(CF[Phe(4-CN)]LYT)
modifications: not fully specified
B4: RINGPep1 derivative with homo-phenylalanine at position 3 (peptide)
chain: cyclo(CF[hPhe]LYT)
modifications: not fully specified
B5: RINGPep1 derivative with 4-chloro-phenylalanine at position 3 (peptide)
chain: cyclo(CF[Phe(4-Cl)]LYT)
modifications: not fully specified
B6: RINGPep1 derivative with 4-nitro-phenylalanine at position 3 (peptide)
chain: cyclo(CF[Phe(4-NO2)]LYT)
modifications: not fully specified
B7: RINGPep1 derivative with 4-methy-phenylalanine at position 3 (peptide)
chain: cyclo(CF[Phe(4-Me)]LYT)
modifications: not fully specified
B8: RINGPep1 derivative with 4-fluoro-phenylalanine at position 3 (peptide)
chain: cyclo(CF[Phe(4-F)]LYT)
modifications: not fully specified

molecular target: Full length IDOL (1–445) (UniProt Q8WY64); assay: SPR; Biacore S200; 6× His-tagged full-length IDOL immobilized on an NTA chip (~6000 RU), peptides as analytes; 10 mM HEPES, 300 mM NaCl, 1 mM TCEP, 0.05% Tween 20, 4% DMSO, pH 8.0; saturation at the highest concentrations not observed; conditions: not given

Kd	Binder
38.5 µM	B1
20.9 µM	B2

Molecular target: T1, Full length IDOL (1–445), Q8WY64
Assay: MST
Conditions: modification not given; NT-647-NHS dye (only the labelled copy in the MST assays)

Kd	Binder
36.2 µM	B3
23.6 µM	B4
12 µM	B5
35.7 µM	B6
23.1 µM	B7
35.2 µM	B8

molecular target: Full length IDOL (1–445) (UniProt Q8WY64); assay: MST; Monolith NT.115; 6× His IDOL labelled with NT-647-NHS dye at 50 nM, peptides titrated; 10 mM HEPES, 300 mM NaCl, 1 mM TCEP, 0.05% TWEEN-20, pH 8.0, 5% DMSO; conditions: not given

Kd	Binder
38.5 µM	B1
